How the values were obtained:
[1] = molecular target: T1, monkey CD22 protein (ACROBiosystems, catalog number SI2-R52Ha) (monkey, UniProt F6W485 20-688); test: ELISA, coated monkey CD22 protein, antibody 10 nM
T1 construct: commercial protein; also called monkey CD22-ECD; monkey CD22-ECD-His
T1 sequence: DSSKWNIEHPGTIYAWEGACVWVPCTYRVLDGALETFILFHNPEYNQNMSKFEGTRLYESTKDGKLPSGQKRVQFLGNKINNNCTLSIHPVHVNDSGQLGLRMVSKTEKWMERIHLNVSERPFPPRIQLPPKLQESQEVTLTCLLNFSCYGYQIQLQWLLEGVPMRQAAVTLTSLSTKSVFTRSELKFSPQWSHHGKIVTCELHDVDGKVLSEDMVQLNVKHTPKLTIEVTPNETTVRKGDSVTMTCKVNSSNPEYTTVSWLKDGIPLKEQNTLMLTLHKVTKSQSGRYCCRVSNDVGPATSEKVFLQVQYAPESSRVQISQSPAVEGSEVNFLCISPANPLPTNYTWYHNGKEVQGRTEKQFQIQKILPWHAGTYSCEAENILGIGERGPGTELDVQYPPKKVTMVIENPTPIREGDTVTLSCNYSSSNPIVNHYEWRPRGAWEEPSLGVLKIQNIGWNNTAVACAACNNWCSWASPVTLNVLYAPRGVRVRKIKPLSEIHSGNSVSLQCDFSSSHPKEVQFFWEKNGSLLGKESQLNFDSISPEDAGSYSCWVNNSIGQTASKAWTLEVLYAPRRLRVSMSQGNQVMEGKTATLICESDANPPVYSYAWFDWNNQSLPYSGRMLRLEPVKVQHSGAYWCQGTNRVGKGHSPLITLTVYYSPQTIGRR
Procedure, shortened: (§1)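 Read-out is TMB absorbance after a 30 min room-temperature development stopped with 1.0 N HCl. It reflects chimeric antibody bound to plate-coated CD22 (2 μg/mL), detected with an HRP-labelled secondary antibody. Antibody and secondary incubations each ran 2 h at 37° C.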

[2] = molecular target: T1, monkey CD22 protein (ACROBiosystems, …); test: ELISA, coated monkey CD22 protein, antibody 0.1 nM
Procedure, shortened: as §1

[3] = molecular target: T1, monkey CD22 protein (ACROBiosystems, …); test: ELISA, coated monkey CD22 protein, antibody 100 nM
Procedure, shortened: as §1

[4] = molecular target: T1, monkey CD22 protein (ACROBiosystems, …); test: ELISA, coated monkey CD22 protein, antibody 0.01 nM
Procedure, shortened: as §1

[5] = molecular target: T2, CD22 on cynomolgus monkey peripheral blood B cells (cynomolgus monkey (Macaca fascicularis)); test: FACS, cynomolgus PBMC, CD20+ B cells, antibody 1 nM
T2 construct: whole, on cells; also called cynomolgus monkey B cells
Procedure, shortened: (§2)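 Cynomolgus PBMC from fresh blood were isolated by Ficoll and co-stained with cross-reactive anti-human CD20 and chimeric antibody at 1, 10 or 100 nM for 1 h at room temperature. Bound antibody was detected by APC anti-human IgG Fc. Values are the percentage of antibody-positive cells within the gated CD20+ B-cell population, by FACS.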

[6] = molecular target: T1, monkey CD22 protein (ACROBiosystems, …); test: ELISA, coated monkey CD22 protein, antibody 0.001 nM
Procedure, shortened: as §1

[7] = molecular target: T2, CD22 on cynomolgus monkey peripheral …; test: FACS, cynomolgus PBMC, CD20+ B cells, antibody 10 nM
Procedure, shortened: as §2

[8] = molecular target: T1, monkey CD22 protein (ACROBiosystems, …); test: ELISA, coated monkey CD22 protein, antibody 0.0001 nM
Procedure, shortened: as §1

[9] = molecular target: T2, CD22 on cynomolgus monkey peripheral …; test: FACS, cynomolgus PBMC, CD20+ B cells, antibody 100 nM
Procedure, shortened: as §2

[10] = molecular target: T1, monkey CD22 protein (ACROBiosystems, …); test: ELISA, coated monkey CD22 protein, antibody 0.00001 nM
Procedure, shortened: as §1

B1: HA22-hIgG1 (antibody, V domains shown)
VH: EVQLVESGGGLVKPGGSLKLSCAASGFAFSIYDMSWVRQTPEKCLEWVAYISSGGGTTYYPDTVKGRFTISRDNAKNTLYLQMSSLKSEDTAMYYCARHSGYGTHWGVLFAYWGQGTLVTVSA
VL: DIQMTQTTSSLSASLGDRVTISCRASQDISNYLNWYQQKPDGTVKLLIYYTSILHSGVPSRFSGSGSGTDYSLTISNLEQEDFATYFCQQGNTLPWTFGCGTKLEIKR
B1 was tested, and the OD450 [1] was 2.41 OD450, the OD450 [2] was 2.24 OD450 and the OD450 [3] was 2.2 OD450. The OD450 [4] was 1.54 OD450, the “Proportion of chimeric antibody positive cells to B cells (%)” value (“Proportion … (%)” below) [5] was 33% and the OD450 [6] was 0.47 OD450. For the same binder, the “Proportion … (%)” value [7] was 89%, the OD450 [8] was 0.14 OD450 and the “Proportion … (%)” value [9] was 93%. For the same binder, the OD450 [10] was 0.08 OD450.
